Test results from IntAct's records for PubMed 17070842.

B1: Tyrosine-protein phosphatase non-receptor type substrate 1 (Homo sapiens), P78324-4 (parent)
chain: MEPAGPAPGRLGPLLCLLLAASCAWSGVAGEEELQVIQPDKSVLVAAGETATLRCTATSLIPVGPIQWFRGAGPGRELIYNQKEGHFPRVTTVSDLTKRNNMDFSIRIGNITPADAGTYYCVKFRKGSPDVEFKSGAGTELSVRAKPSAPVVSGPAARATPQHTVSFTCESHGFSPRDITLKWFKNGNELSDFQTNVDPVGESVSYSIHSTAKVVLTREDVHSQVICEVAHVTLQGDPLRGTANLSETIRVPPTLEVTQQPVRAENQVNVTCQVRKFYPQRLQLTWLENGNVSRTETASTVTENKDGTYNWMSWLLVNVSAHRDDVKLTCQVEHDGQPAVSKSHDLKVSAHPKEQGSNTAAENTGSNERNIYIVVGVVCTLLVALLMAALYLVRIRQKKAQGSTSSTRLHEPEKNAREITQDTNDITYADLNLPKGKKPAPQAAEPNNHTEYASIQTSPQPASEDTLTYADLDMVHLNRTPKQPAPKPEPSFSEYASVQVPRK
B2: Signal-regulatory protein beta-1 (Homo sapiens), O00241 (parent)
chain: MPVPASWPHLPSPFLLMTLLLGRLTGVAGEDELQVIQPEKSVSVAAGESATLRCAMTSLIPVGPIMWFRGAGAGRELIYNQKEGHFPRVTTVSELTKRNNLDFSISISNITPADAGTYYCVKFRKGSPDDVEFKSGAGTELSVRAKPSAPVVSGPAVRATPEHTVSFTCESHGFSPRDITLKWFKNGNELSDFQTNVDPAGDSVSYSIHSTARVVLTRGDVHSQVICEIAHITLQGDPLRGTANLSEAIRVPPTLEVTQQPMRAENQANVTCQVSNFYPRGLQLTWLENGNVSRTETASTLIENKDGTYNWMSWLLVNTCAHRDDVVLTCQVEHDGQQAVSKSYALEISAHQKEHGSDITHEAALAPTAPLLVALLLGPKLLLVVGVSAIYICWKQKA

Variants of: B1
Settings: with cd47_human CD47, Q08722
Target sequence in this assay (Q08722 whole entry): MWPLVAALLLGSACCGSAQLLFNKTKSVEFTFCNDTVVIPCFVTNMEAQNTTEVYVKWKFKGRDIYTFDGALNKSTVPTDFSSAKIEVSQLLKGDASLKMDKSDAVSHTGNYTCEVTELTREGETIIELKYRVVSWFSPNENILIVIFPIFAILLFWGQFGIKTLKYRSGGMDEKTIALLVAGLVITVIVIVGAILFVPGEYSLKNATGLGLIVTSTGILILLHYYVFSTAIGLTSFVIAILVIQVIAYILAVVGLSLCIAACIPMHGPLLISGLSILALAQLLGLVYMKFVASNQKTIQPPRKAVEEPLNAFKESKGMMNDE

Row | effect of a mutation on the interaction | Variant
1 | disrupting interaction strength | A57M

Variants of: B2
Settings: with cd47_human CD47, Q08722
Target sequence in this assay (Q08722 whole entry): as above

Row | effect of a mutation on the interaction | Variant
2 | causing an interaction | M56V;M66Q;A73P
3 | causing an interaction | M56V;M66Q
4 | causing an interaction | M56V;M66Q;L101M
